Positions of bridges follow the written chain, without caps; N, C: chain ends. No end group written: not given here.

The target of assay [1] is T1, BSA (UniProt P02769 25-607).
T1 construct: Only printed as 'BSA'
Description: monoclonal phage ELISA, BSA coated at 5 µg/mL. Here is the method:
(§1) Microtiter wells were coated overnight with either factor H or BSA at 5 μg/mL in PBS at 4° C., and saturated with 5% non-fat milk in PBST for 1 h. Completely separated individual phage plaques from the third round of screening were picked and amplified. Phage particles of each amplified individual phage plaque were added to both factor H- and BSA-coated wells in parallel and allowed to bind at RT for 1 h. After six washes with PBST, bound phages were detected with HRP-conjugated anti-M13 monoclonal antibody (GE Healthcare), using ABTS (Roche) for color development. Clones that bound to factor H but not to BSA were considered positive; single-stranded DNA from positive clones was prepared using an M13 kit (Qiagen, Valencia, Calif.) and sequenced by the DNA sequencing facility of the University of Pennsylvania.
In general terms: An ELISA detects its analyte on a solid surface through an enzyme-linked reagent.

The target in assay [2] is T2, Human factor H (human, UniProt P08603 19-1231).
T2 construct: mature; Plasma-derived protein; also called fH
Description: monoclonal phage ELISA on coated factor H. On the procedure:
as §1

Assay [3] deals with T3, factor H SCR 1-4 (fH1-4) (human, UniProt P08603 19-264).
T3 construct: domain: SCR 1-4; also called N-terminal fragment of factor H; regulatory fH1-4 fragment
The experiment in a line: monoclonal phage ELISA. On the procedure:
as §1
(§2) To localize the binding sites on factor H of the positive clones, we further tested each clone by monoclonal phage ELISA for binding to factor H and its N- and C-terminal fragments, i.e. fH1-4 and fH19-20.

Assay [4] deals with T4, fH19-20 (human, UniProt P08603 1107-1231).
T4 construct: domain: SCR19-20; also called factor H SCR19-20; C-terminal two SCR of factor H
T4 sequence (looked up): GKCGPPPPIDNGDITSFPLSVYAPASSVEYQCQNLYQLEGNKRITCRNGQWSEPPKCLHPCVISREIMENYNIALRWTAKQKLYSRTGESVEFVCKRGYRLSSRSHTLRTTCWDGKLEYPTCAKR
The experiment in a line: monoclonal phage ELISA. On the procedure:
as §1, §2

Assay [5] concerns the target T2, Human factor H. The experiment in a line: ELISA, biotinylated peptide on coated streptavidin, factor H detected by polyclonal antibody. Here is the method: (§3) Two approaches were used to evaluate the binding of synthetic peptides to factor H. First, we used peptide-phage competition assays, in which serially diluted synthetic peptide was added to its parent phage at the step of phage binding to coated factor H. The rest of the steps were performed as described above for monoclonal phage ELISA. Second, ELISA experiments were used to evaluate the binding of factor H to the immobilized peptide. Microtiter plates were coated with streptavidin (New England Biolabs) at 10 μg/ml in PBS at 4° C. overnight, and saturated with 2% BSA in PBS. After washing, either the biotinylated 5C6 peptide or a biotinylated control peptide (linear compstatin; […]) was added at 10 μg/ml and allowed to bind at RT for 30 min. […] After 1 h of binding, the plates were washed, and bound factor H was detected with goat anti-human factor H polyclonal antibody (Quidel, San Diego, Calif.), followed by HRP-conjugated rabbit anti-goat IgG (Bio-Rad). […]
(§4) The direct binding between the peptide and factor H was initially evaluated in an ELISA experiment, in which the biotinylated 5C6 peptide and a biotinylated control peptide of similar size and charge (i.e., linear compstatin) were captured by coated streptavidin and the binding of purified factor H was detected by polyclonal antibodies.

For assay [6], the target named is T4, fH19-20. Description: monoclonal phage ELISA on coated fragment. Here is the method: as §1, §2
The target in assay [7] is T2, Human factor H. The experiment in a line: peptide-phage competition ELISA on coated factor H. On the procedure:
Two approaches were used to evaluate the binding of synthetic peptides to factor H. First, we used peptide-phage competition assays, in which serially diluted synthetic peptide was added to its parent phage at the step of phage binding to coated factor H. The rest of the steps were performed as described above for monoclonal phage ELISA. Second, ELISA experiments were used to evaluate the binding of factor H to the immobilized peptide. Microtiter plates were coated with streptavidin (New England Biolabs) at 10 μg/ml in PBS at 4° C. overnight, and saturated with 2% BSA in PBS. After washing, either the biotinylated 5C6 peptide or a biotinylated control peptide (linear compstatin; […]) was added at 10 μg/ml and allowed to bind at RT for 30 min. The wells were washed again, and factor H serially diluted in PBS, starting with 2.5 μg/ml, was added. After 1 h of binding, the plates were washed, and bound factor H was detected with goat anti-human factor H polyclonal antibody (Quidel, San Diego, Calif.), followed by HRP-conjugated rabbit anti-goat IgG (Bio-Rad). […]

The target of assay [8] is T3, factor H SCR 1-4 (fH1-4). The experiment in a line: SPR, biotinylated peptide captured on streptavidin chip, fragment injected. On the procedure:
The binding of factor H with surface-bound 5C6 peptide was further characterized using surface plasmon resonance (SPR) on a ProteOn XPR36 instrument (Bio-Rad Inc., Hercules, Calif.) using PBST (10 mM sodium phosphate, 150 mM NaCl, 0.005% Tween 20) as running buffer. Streptavidin (50 μg/ml in 10 mM sodium acetate pH 5.0) was immobilized on a GLC sensor chip at 30° C. using amine coupling. The biotinylated 5C6 peptide and a biotinylated control peptide (linear compstatin; see above) were captured on separate streptavidin-coated channels to a density of ˜200 resonance units (RU). Purified factor H (Complement Technologies, Tyler, Tex.) or recombinant fragments fH1-4 and fH19-20 were injected at a concentration of 100 nM for 2 rain at a flow rate of 25 μl/min with a dissociation phase of 6 min. A single injection of 2 M NaCl for 30 s was used to regenerate the surface between injections. […]
The binding activity and specificity was further validated using SPR assays, by simultaneously injecting factor H or its fragments over biotinylated 5C6 peptide and the control peptide, which were captured on a streptavidin-coated sensor chip. […] While a significant SPR response could also be detected for the fH19-20 fragment, this interaction was not stable and the signal rapidly returned to baseline. […]
On the technique in general: SPR reads the build-up and loss of mass on a sensor chip optically.

In assay [9] the target is T2, Human factor H. The experiment in a line: ELISA, biotinylated peptide on coated streptavidin, purified factor H detected by polyclonal antibody. Here is the method: as §3, §4
Assay [10] addresses T3, factor H SCR 1-4 (fH1-4). The experiment in a line: monoclonal phage ELISA on coated fragment. Here is the method: as §1, §2

T3 sequence (P08603 19-264 limits assumed): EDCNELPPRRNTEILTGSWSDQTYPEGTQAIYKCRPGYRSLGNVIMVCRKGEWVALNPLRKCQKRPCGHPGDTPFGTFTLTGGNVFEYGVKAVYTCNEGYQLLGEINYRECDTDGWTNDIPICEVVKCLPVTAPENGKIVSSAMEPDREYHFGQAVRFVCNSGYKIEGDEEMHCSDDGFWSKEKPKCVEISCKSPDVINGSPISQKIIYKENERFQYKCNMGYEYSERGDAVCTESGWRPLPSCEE
T1 sequence (P02769 25-607 limits assumed): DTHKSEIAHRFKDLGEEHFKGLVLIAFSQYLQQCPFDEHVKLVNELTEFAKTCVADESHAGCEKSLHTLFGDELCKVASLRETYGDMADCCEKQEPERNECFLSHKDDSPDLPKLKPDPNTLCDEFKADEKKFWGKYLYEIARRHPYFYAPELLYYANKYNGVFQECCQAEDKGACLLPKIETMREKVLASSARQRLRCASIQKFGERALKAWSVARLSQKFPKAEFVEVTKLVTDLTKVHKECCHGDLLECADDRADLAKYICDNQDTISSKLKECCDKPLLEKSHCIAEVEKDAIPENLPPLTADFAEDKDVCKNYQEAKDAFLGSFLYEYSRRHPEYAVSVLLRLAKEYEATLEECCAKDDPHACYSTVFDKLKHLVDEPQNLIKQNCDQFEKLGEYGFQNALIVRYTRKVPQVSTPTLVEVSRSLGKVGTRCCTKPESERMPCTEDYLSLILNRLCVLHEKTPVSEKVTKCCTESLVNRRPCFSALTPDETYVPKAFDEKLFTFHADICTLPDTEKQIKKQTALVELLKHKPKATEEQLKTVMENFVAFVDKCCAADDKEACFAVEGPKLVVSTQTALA

B1: Phage clone 5D1 (class 3, library ANL5) (peptide)
peptide: ASPSWCSYSHWCRH
notes: not shown: not specified for the library
With B1, the binding result in assay [1] was “no binding”; in assay [2] it was “binds”; in assay [3] it was “no binding”; in assay [4], “no binding”.

B2: Biotinylated control peptide (linear compstatin, Cys-to-Ala double mutant) (peptide)
peptide: IAVVQDWGHHRAT
modifications: also: biotinylated, site not given here
notes: captured on coated streptavidin; also called LC; negative control peptide
Take B2: the binding result in [5] is “no binding”.

B3: Phage clone 5C6 (class 3, library ANL5) (peptide)
peptide: ASSSRCTYDHWCSH
notes: also called parent phage of the 5C6 peptide; not shown: not specified for the library
For the molecule B3, the values for the binding result in assay [1], in assay [2] and in assay [3] were “no binding”, “binds” and “no binding”, respectively.

B4: Phage clone 5-2B2 (class 3, library ANL5) (peptide)
peptide: ASSCMYSYWCTH
notes: as for B1
As for B4, the binding result is on record as “no binding” in [1], “binds” in assay [2], “no binding” in assay [3] and “no binding” in [4].

B5: Phage clone 5G11 (class 3, library ANL5) (peptide)
peptide: ASSNVCSYSYWCAH
notes: as for B1
On to B5, for which the binding result in assay [1] was “no binding”; in assay [2] it was “binds”; in assay [3] it was “no binding”; in [4] it was “no binding”.

B6: Phage clone 4A1 (class 1, library ANL4) (peptide)
peptide: ASSGMCFTKKTVLC
notes: as for B1
On to B6, for which the values for the binding result in assay [6], in assay [1] and in [2] were “binds”, “no binding” and “binds”, respectively.

B7: Synthetic 5C6 peptide (peptide)
peptide: ASSSRCTYDHWCSH-NH2
modifications: disulfide 6-12; N-terminus assumed
SMILES: C[C@H](N)C(=O)N[C@@H](CO)C(=O)N[C@@H](CO)C(=O)N[C@@H](CO)C(=O)N[C@@H](CCCNC(=N)N)C(=O)N[C@H]1CSSC[C@@H](C(=O)N[C@@H](CO)C(=O)N[C@@H](Cc2c[nH]cn2)C(N)=O)NC(=O)[C@H](Cc2c[nH]c3ccccc23)NC(=O)[C@H](Cc2c[nH]cn2)NC(=O)[C@H](CC(=O)O)NC(=O)[C@H](Cc2ccc(O)cc2)NC(=O)[C@H]([C@@H](C)O)NC1=O
notes: also called peptide 5C6
Take B7: the binding result in assay [7] is “binds”.

B8: Phage clone 5E10 (class 3, library ANL5) (peptide)
peptide: ASSFKCDYSHWCLH
notes: as for B1
Consider B8, for which the binding result is reported as “no binding” in assay [1], “binds” in assay [2], “no binding” in assay [3] and “no binding” in assay [4].

B9: Biotinylated 5C6 peptide (peptide)
peptide: ASSSRCTYDHWCSH-{K(biotin)-NH2}
modifications: disulfide 6-12
notes: Captured on coated streptavidin (polystyrene wells or SPR chips); also called immobilized 5C6 peptide; not shown: C-terminal lysine carrying biotin
Regarding B9, the figures for the binding result in [8] and in assay [9] were “no binding (tested: 100 nM)” and “binds”, respectively.

B10: Phage clone 5-2C6 (class 2, library ANL5) (peptide)
peptide: ASSYDVGYSHDCRF
notes: as for B1
Turning to B10, the binding result is “binds” in assay [10], “no binding” in [1] and “binds” in [2].

For the origin of these results see US20130344592A1 (University of Pennsylvania, published 2013).
